# T1: human full-length RS1 fused to the GAL4 DNA binding domain (pBind-RS1) (human, UniProt O15537 1-224)
# T1 construct: 224 amino acids), so with its own signal peptide in the construct; source: Cos1 cells, transfected (mammalian two-hybrid fusion)
# T1 sequence (looked up): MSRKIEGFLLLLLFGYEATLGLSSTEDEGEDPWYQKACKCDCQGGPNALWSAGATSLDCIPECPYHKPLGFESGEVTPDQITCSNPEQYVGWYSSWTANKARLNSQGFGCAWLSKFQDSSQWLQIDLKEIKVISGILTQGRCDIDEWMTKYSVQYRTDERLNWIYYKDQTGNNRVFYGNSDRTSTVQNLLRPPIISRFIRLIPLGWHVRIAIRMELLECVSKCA
# Molecular target: T1, human full-length RS1 fused to the GAL4 …
# Test: two-hybrid; mammalian two-hybrid (luciferase reporter) in Cos1 cells: pBind-RS1 (GAL4 DNA binding domain, bait), pACT-Cav1.4-N terminal (VP16 activation domain), pG5Luc, 100 ng each; controls with empty pBind or pACT; n = 6
# Conditions: partners not purified
binder,measurement,value
"human Cav1.4 N-terminal fragment fused to the VP16 activation domain (pACT-Cav1.4-N terminal) (domain or fragment, the methods give 1-1481 bp from ATG, which is about 493 codons; the exact C-terminal limit follows from the reverse primer; also called hCav1.4-N; source: Cos1 cells, transfected (mammalian two-hybrid fusion)) not shown","relative luciferase activity, fold over the controls",≥ 4 fold
